Read-outs that look alike come from different tables or passages of the source. One block for each molecule: values may come before it.
What was measured:
[1] = target: Cy5-IL-13Rα1 (Cy5 labeled IL-13Rα1) (human) (UniProt P78552); test: TR-FRET assay 1, competition with 10 nM Eu-IL-13 for 10 nM Cy5-IL-13Rα1
[2] = target: Cy5-IL-13Rα1 plus IL-4R (500 nM) in solution (human) (UniProt P78552); test: TR-FRET assay 1, competition with 10 nM Eu-IL-13, 10 nM Cy5-IL-13Rα1, 500 nM IL-4R
[3] = target: Cy5-IL-13Rα1 (Cy5 labeled IL-13Rα1) (human) (UniProt P78552); test: TR-FRET assay 1, competition with Eu-IL-13 for Cy5-IL-13Rα1, Kd calculated from IC50
[4] = target: IL-13Rα1 monomer (IL-13Rα1 extracellular domain) (human) (UniProt P78552); test: SPR, IL-13Rα1 immobilised, 1:1 model
[5] = target: Cy5-IL-13Rα1 plus IL-4R (500 nM) in solution (human) (UniProt P78552); test: TR-FRET assay 1, competition with Eu-IL-13, with 500 nM IL-4R, Kd calculated from IC50
[6] = target: IL-13Rα1 + IL-4R co-immobilised on one sensor chip surface (high affinity receptor) (human) (UniProt P78552); test: SPR, IL-13Rα1 and IL-4R co-immobilised, heterogeneous ligand model, component 2 (high affinity)
IL-13Rα1 + IL-4R co-immobilised on one sensor chip surface (high affinity receptor) (human), sequence (P24394 26-232): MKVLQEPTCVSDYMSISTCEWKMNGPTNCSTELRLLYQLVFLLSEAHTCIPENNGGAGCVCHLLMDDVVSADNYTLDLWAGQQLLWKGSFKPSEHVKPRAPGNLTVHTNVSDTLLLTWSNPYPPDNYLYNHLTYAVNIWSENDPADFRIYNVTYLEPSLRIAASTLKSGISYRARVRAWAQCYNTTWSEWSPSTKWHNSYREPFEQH

[7] = target: IL-13Rα1 + IL-4R co-immobilised on one sensor chip surface (high affinity receptor) (human) (UniProt P78552); test: SPR, IL-13Rα1 and IL-4R co-immobilised, heterogeneous ligand model, component 2 (high affinity); column head misprinted 'Kd 2 × 10^6'
[8] = target: IL-13Rα1 + IL-4R co-immobilised on one sensor chip surface (high affinity receptor) (human) (UniProt P78552); test: SPR, IL-13Rα1 and IL-4R co-immobilised, heterogeneous ligand model, component 1 (lower affinity)
[9] = target: IL-13Rα1 monomer (IL-13Rα1 extracellular domain) (human) (UniProt P78552); test: SPR, IL-13Rα1 immobilised
[10] = target: IL-13Rα1 + IL-4R co-immobilised on one sensor chip surface (high affinity receptor) (human) (UniProt P78552); test: SPR, IL-13Rα1 and IL-4R co-immobilised, against IL-13Rα1 alone
[11] = target: IL-13R110Q/IL-13Rα1 binary complex (human) (UniProt P35225); test: SPR, IL-13Rα1 immobilised, 8 nM IL-13R110Q in buffer, IL-4R injected, 1:1 model
IL-13R110Q/IL-13Rα1 binary complex (human), sequence (P35225 35-146, one chain of several): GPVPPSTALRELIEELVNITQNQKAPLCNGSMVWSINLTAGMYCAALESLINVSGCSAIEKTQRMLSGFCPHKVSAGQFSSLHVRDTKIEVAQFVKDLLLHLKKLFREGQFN

[12] = target: IL-13R110Q/IL-13Rα1 binary complex (human) (UniProt P35225); test: as above; remark: listed apart in the source
[13] = target: T1, Eu-IL-13 (europium chelate labeled IL-13) (human, UniProt P35225 35-146, limits assumed, europium chelate (Eu) label, directly labeled; site not stated); test: TR-FRET assay 1, direct: Cy5-IL-13Rα1 titrated into 10 nM Eu-IL-13, no IL-4R
T1 construct: also called Eu-labeled IL-13
T1 sequence (P35225 other isoform, or with tags, fused parts or gaps limits assumed, form in doubt): as the sequence (P35225 35-146, one chain of several) above, with Q110R counted along it
Description: (§1) All TR-FRET experiments were performed on a 384-well black plate (Corning Costar, Acton, Mass.) in 20 μL final volume of PBS plus 0.1% BSA. For example, excitation and emission conditions for TR-FRET assay 1 and 2 were 345 nm and 665 nm, respectively. All TR-FRET measurements were taken using an Envision plate reader (Perkin Elmer) using the TR-FRET mode.
Binding between IL-13 and IL-13Rα¹ was analyzed using Eu-IL-13 (Eu=Europium chelate, FRET donor) and Cy5-IL-13Rα1 (Cy5=Cyanine dye, FRET acceptor) (schematic shown in FIG. 3) described in Example 5. Affinity measurements were performed by adding various concentrations of Cy5-IL-13Rα1 in the presence of 10 nM Eu-IL-13 with and without 500 nM IL-4R.

[14] = target: T1, Eu-IL-13 (europium chelate labeled …); test: TR-FRET assay 1, competition with 10 nM Cy5-IL-13Rα1 for 10 nM Eu-IL-13, no IL-4R
Description: as §1
(§2) Assays were performed as described in Example 5. Competition experiments were performed by adding various concentrations of unlabeled IL-13, IL-13R110Q, or IL-13Rα1 to the Eu-IL-13 (10 nM)/Cy5-IL-13Rα1 (10 nM) binary complex with or without IL-4R (500 nM).
(§3) To confirm the dissociation constant of Cy5-IL-13Rα1, a competition experiment was performed using unlabeled IL-13Rα1.

[15] = target: T2, Eu-IL-13 plus IL-4R (500 nM) in solution (human, UniProt P35225 35-146; P24394 26-232, limits assumed, europium chelate label; site not stated); test: TR-FRET assay 1, competition with 10 nM Cy5-IL-13Rα1 for 10 nM Eu-IL-13, with 500 nM IL-4R
T2 construct: The partners of IL-13Rα1 in the ternary format of TR-FRET assay 1
T2 sequence (P35225 other isoform, or with tags, fused parts or gaps limits assumed, form in doubt, chain 1 of 2): as the sequence (P35225 35-146, one chain of several) above, with Q110R counted along it
T2 sequence (P24394 26-232 limits assumed, form in doubt, chain 2 of 2): as the sequence (P24394 26-232) above
Description: as §1, §2, §3

Cy5-IL-13Rα1 plus IL-4R (500 nM) in solution (human), sequence (P24394 26-232): as above

Kd [11]: 115 nM | koff [11]: 0.0051 s⁻¹ | kon [11]: 44000 M⁻¹ s⁻¹ | koff [12]: 0.005 s⁻¹
Molecule: soluble form of carrier-free human IL-4Rα monomer (R&D Systems) (from UniProt P24394 26-232) (receptor)

EC50 [13]: 10 nM
B1: Cy5-IL-13Rα1 (Cy5 labeled IL-13Rα1) (receptor, human, UniProt P78552 22-343, looked up)
chain: GGGGAAPTETQPPVTNLSVSVENLCTVIWTWNPPEGASSNCSLWYFSHFGDKQDKKIAPETRRSIEVPLNERICLQVGSQCSTNESEKPSILVEKCISPPEGDPESAVTELQCIWHNLSYMKCSWLPGRNTSPDTNYTLYYWHRSLEKIHQCENIFREGQYFGCSFDLTKVKDSSFEQHSVQIMVKDNAGKIKPSFNIVPLTSRVKPDPPHIKNLSFHNDDLYVQWENPQNFISRCLFYEVEVNNSQTETHNVFYVQEAKCENPEFERNVENTSCFMVPGVLPDTLNTVRIRVKTNKLCYEDDKLWSNWSQEMSIGKKRNST
modifications: Cy5 label, directly labeled; site not stated
notes: extracellular domain; also called IL-13R-Cys5; Cy5-IL-13RI1

More lines, now with the values behind:

Molecule: IL-13R110Q (from UniProt P35225 35-146) (ligand)
IC50 [1]: 27 nM | IC50 [2]: 12 nM | Kd [3]: 6.7 nM | Kd [4]: 8.93 nM | koff [4]: 0.015 s⁻¹ | kon [4]: 1.68e+06 M⁻¹ s⁻¹ | Kd [5]: 0.3 nM | Kd [6]: 0.53 nM | koff [6]: 0.002 s⁻¹ | kon [7]: 3.77e+06 M⁻¹ s⁻¹ | Kd [8]: 14.5 nM | koff [8]: 0.018 s⁻¹ | kon [8]: 1.24e+06 M⁻¹ s⁻¹ | t½ (decay of binding) [9]: 50 s | fold lower Kd than to IL-13Rα1 alone [10]: 17 fold

B2: IL-13Rα1 monomer (IL-13Rα1 extracellular domain) (receptor, human, UniProt P78552 22-343, looked up)
chain: B1 chain
notes: extracellular domain; Expressed and purified as in Yang et al. 2006; also called IL-13RI1; IL-13R1
IC50 [14]: 20 nM | IC50 [15]: 11 nM

From patent US20090156421A1 (published 2009)
